# This sample holds only a part of the variants without activity.
# B1: TPR 5TU (parent)
# chain: GGAUCUUCUCGAUCUAACAAAAAAGACAAAUCUGCCACAAAGCUUGAGAGCAUCUUCGGAUGCAGAGGCGGCAGCCUUCGGUGGCGCGAUAGCGCCAACGUUCUCAACUAUGACACGCAAAACGCGUGCUCCGUUGAAUGGAGUUUAUCAUG
# Variants of: B1
# Assay: polymerase ribozyme fitness, log enrichment relative to wild type (log ratio); higher = more active; in vitro selection for triplet polymerase activity
# In short: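 Fitness measures genotype enrichment against wild-type enrichment on a logarithmic scale, with inverse-variance-weighted averaging of replicates. The logarithm is base 2, and genotypes were kept only with ≥10 input reads and ≥1 read per output in Illumina sequencing. The sequenced libraries came from one triplicate in vitro selection round, including frozen incubation at −7 °C, of PCR-built, transcribed mutant libraries of each subunit of a heterodimeric triplet polymerase ribozyme.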
row,Variant,polymerase ribozyme fitness (log ratio)
1,C87A A89C G124C U148A,≤ -4.2
2,C85U A97C G124U,0.338
3,G86U A97U,-1.74
4,C85G A107U G126U C132U,≤ -4.2
5,A91U A121U U144A,≤ -4.2
6,G86U A89G G92A,≤ -4.2
7,G86U C96U,-2.68
8,C93G C105A U135A,≤ -4.2
9,G86A A89U U144C,-1.64
10,C85G A107G,≤ -4.2
11,C85U C118U G141U,0.748
12,G86U A89U,-2.62
13,C87U A110U A120C U135A G136A,≤ -4.2
14,C87U U102G A138C,≤ -4.2
15,C85U G94U,0.0431
16,G86U A107G C116A G136U A138C,≤ -4.2
17,C87U U102G,-3.08
18,C87U U148G,-3.83
19,G86U C93A,-0.194
20,A91U U111G U151G,≤ -4.2
21,G92U C99G,-1.57
22,U90A C95A,≤ -4.2
23,C85U U144C,0.118
24,C85G C96A A97G U102A C132A U135A,≤ -4.2

row,Variant,polymerase ribozyme fitness (log ratio)
1,G88A C105U,-3.72
2,C85U C108G G143A A150G,-3.95
3,C85G A115U,-3.56
4,U90C G94U A120U G124U,≤ -4.2
5,G88U A97G A98U G133U A150U,≤ -4.2
6,A89C U127A,-4.16
7,C87A G88C C96U C118U U146C,≤ -4.2
8,C85G C87U U145G,-3.08
9,C85U A115C,-0.617
10,C87U U104A,-0.828
11,C85A U139C,-4.1
12,C85U C105G A142U,-2.01
13,G88C C105A G117C G141A A147U,≤ -4.2
14,C85G A121U,-3.11
15,C85U C118G,-0.62
16,C87U U102C A115C,-2.7
17,G92A A98U U111A C123U U144A A150C,≤ -4.2
18,G86U C149U,-2.48
19,G92A C103G C129G U134A,≤ -4.2
20,G86A G141C,-1.01
21,A91G C96U U101C U144G,-2.18
22,A91G C95U,-2.75
23,U90A A106C G128A,≤ -4.2
24,G88A C118U G141U U144A,≤ -4.2

row,Variant,polymerase ribozyme fitness (log ratio)
1,C85U U104A U144A,-0.68
2,G88A C93G C108U A120U A137U,≤ -4.2
3,C85G A98G,-0.929
4,C85G A98U,-2.9
5,C93A U151A,≤ -4.2
6,C85G C105U,-1.58
7,C87G C132U,≤ -4.2
8,C87G G94C A98G,-3.08
9,A89G A120C,-1.41
10,C87G A122U C129U U134C,≤ -4.2
11,C93G C103G C118A G136U U146C,≤ -4.2
12,C85A U130G,-3.53
13,C87G G88C G136A,≤ -4.2
14,G86U U144A,-3.12
15,C87G A115U C116G,-3.97
16,A89G A98G C99G,-2.3
17,G92C C114U G141U,≤ -4.2
18,C85U A106C,-3.33
19,C85U A106G,-0.585
20,C85U G140U U146C,-2.87
21,C87U G136U,-2.59
22,G86U U101G,-2.21
23,U90C U145G,≤ -4.2
24,C87G A97U,≤ -4.2

row,Variant,polymerase ribozyme fitness (log ratio)
1,C85U C93U,-1.93
2,C85U C93A,-2.72
3,C87A U90G C99G,≤ -4.2
4,C93A A121G U144A,-1.18
5,C93G A98G,-2.91
6,A91G G92U G140A,≤ -4.2
7,C87A C99U,≤ -4.2
8,C87A A97G,≤ -4.2
9,C85G A122G C123A,-2.57
10,G86C C99G A106G G124U G136A U148C,≤ -4.2
11,G88A U109C A142C,-4.19
12,C85U A107C C131U,-4.07
13,C87U C93G,-4.18
14,C87U C93A,-3.93
15,G88A G126A,-3.7
16,C85U A107U A138G A142G,≤ -4.2
17,C87G C114U,-4.08
18,C93A,-2.17
19,C93G,-3.35
20,A89U U144C,0.497
21,A91C U102A C132U,-3.54
22,A91U U148C,-4.1
23,C93A G128C C132G A138G U148G,≤ -4.2
24,C87U A91U C96U,≤ -4.2

row,Variant,polymerase ribozyme fitness (log ratio)
1,C87A A91C,≤ -4.2
2,G86U A122G,-2.43
3,G86U A122U,-1.8
4,C87A C95U A107U,≤ -4.2
5,C87A G128A U146C U148A,≤ -4.2
6,G88U C99A U146C,≤ -4.2
7,G88A A97U U102C,≤ -4.2
8,A89C A110C,≤ -4.2
9,C93A U109G C123G,-3.37
10,C85U A142U,-0.394
11,A91U G140C,≤ -4.2
12,C85U C96A,-0.931
13,C85U G124A G141C,-0.515
14,G92A U145G,-2.54
15,C87U C116U,-0.851
16,C93A A115G C116U,-2.39
17,C93G A98C A120U,-3.94
18,C87G C93U G124C,≤ -4.2
19,G88A A150C,≤ -4.2
20,C87A U90C C105U,-3.59
21,C87U A120C G152U,-3.33
22,C85U A119C C131G G141C,-0.0963
23,C87G C125U,≤ -4.2
24,C87A C95A,≤ -4.2

row,Variant,polymerase ribozyme fitness (log ratio)
1,C85U A97U,-2.44
2,C85U G126C,-1.23
3,C85U G126U,-1.6
4,C85U G126A,0.641
5,G86C U135A,-3.03
6,C87G G126A,-4.11
7,G88C C131G U151G,≤ -4.2
8,C85U C118G C125A,-0.0117
9,C85G C116U U144G,-0.537
10,A89U G92U A121C G140U,-3.5
11,A89C G92U C96A A106G A107U U139A,≤ -4.2
12,C85U C87U A150G,-1.59
13,G88U C93A,-3.73
14,C87U U109G U127C U135A,-4
15,C85G A122G,-3.42
16,C93A C103G A107U A119G G140A,≤ -4.2
17,G86U A98C U101C,-0.908
18,C93A G140U,-3.85
19,C93A C99A,≤ -4.2
20,C85G C99A,-3.3
21,C85G C99U,-3.51
22,A91G C96U,-3.04
23,C87A C93G,≤ -4.2
24,C85G C99U G140U,≤ -4.2

row,Variant,polymerase ribozyme fitness (log ratio)
1,G86C C93G C105U,0.694
2,G88A A97G U111G,≤ -4.2
3,G92C C95U,-0.22
4,G86A U111C,-3.31
5,U90G G141U,≤ -4.2
6,C85U A147U,-0.285
7,G92A C103U C116U A121G,-3.47
8,C87A A107G A110G A120G U139C G140A A147G,≤ -4.2
9,C93G A138G,≤ -4.2
10,C87A G88U,≤ -4.2
11,C85U C95A G117C,-0.698
12,A89G C95A A137C,-4.09
13,C85G G141U,-0.649
14,G86A C87U,-3.65
15,C85G G117A,-2.7
16,G92A A121U,-2.71
17,C85G A150G,-2.67
18,C85G A150C,-4.1
19,C93A A97G A113G G124U,-4.12
20,C87U A150G,-1.2
21,A91G C125A,-3.21
22,G92C C108G G112C C123A G136C A137C A142G,≤ -4.2
23,A91C A115G,-4.07

# Source: the RNAGym collection of RNA variant scans (doi:10.1073/pnas.2313332121)
